Experimental data from patent publication US6022856.

Biological target: type-2 neurotensin receptor of rats (rNT-R2) (rat)
Test: displacement of 0.2 nM 125I-neurotensin from COS-3 cells transfected with rNT-R2

IC50: 5.1 nM
Substance: neuromedin N (from UniProt P30990) (peptide)
